Results as given in patent US20210324061A1 (ARGENX BVBA, published 2021).
Values joined by “and” are separate entries in the source; they are usually repeats but may differ in a detail not shown here. Identical values can stand only once.

Key:
[1] = molecular target: T1, human GARP-TGF-β1 complex (recombinant complex of human GARP and latent human TGF-β1) (human, UniProt Q14392 20-627; P01137 30-278; P01137 279-390); experiment: SPR Biacore T200, CM5 chip coated with GARP-TGF-β1 complex at 150 RU
T1 construct: also called huGARP-TGF-β1; hGARP-TGF-β1
T1 sequence (Q14392 20-627 limits assumed, chain 1 of 3): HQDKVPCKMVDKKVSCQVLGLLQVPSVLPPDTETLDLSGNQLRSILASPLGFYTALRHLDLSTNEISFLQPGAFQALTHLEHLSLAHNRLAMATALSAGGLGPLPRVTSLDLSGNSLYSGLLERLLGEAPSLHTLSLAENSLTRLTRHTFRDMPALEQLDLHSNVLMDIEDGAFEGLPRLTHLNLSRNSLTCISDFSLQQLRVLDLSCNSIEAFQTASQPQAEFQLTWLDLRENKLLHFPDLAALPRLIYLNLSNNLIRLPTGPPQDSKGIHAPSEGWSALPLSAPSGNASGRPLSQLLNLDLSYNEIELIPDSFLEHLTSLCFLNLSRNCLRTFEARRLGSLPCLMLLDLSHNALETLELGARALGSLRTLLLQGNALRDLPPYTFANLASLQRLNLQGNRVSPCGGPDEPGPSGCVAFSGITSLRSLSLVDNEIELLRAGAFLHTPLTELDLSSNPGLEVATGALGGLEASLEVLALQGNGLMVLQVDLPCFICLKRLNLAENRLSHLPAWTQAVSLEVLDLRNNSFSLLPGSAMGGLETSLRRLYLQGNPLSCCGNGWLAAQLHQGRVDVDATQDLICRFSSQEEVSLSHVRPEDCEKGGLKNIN
T1 sequence (P01137 30-278 limits assumed, chain 2 of 3): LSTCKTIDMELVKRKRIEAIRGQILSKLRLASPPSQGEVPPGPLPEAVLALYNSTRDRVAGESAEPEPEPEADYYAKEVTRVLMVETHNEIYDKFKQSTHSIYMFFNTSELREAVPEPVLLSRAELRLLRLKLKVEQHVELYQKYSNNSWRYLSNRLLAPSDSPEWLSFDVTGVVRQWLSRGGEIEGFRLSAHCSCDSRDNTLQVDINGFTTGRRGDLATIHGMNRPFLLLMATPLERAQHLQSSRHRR
T1 sequence (P01137 279-390 limits assumed, chain 3 of 3): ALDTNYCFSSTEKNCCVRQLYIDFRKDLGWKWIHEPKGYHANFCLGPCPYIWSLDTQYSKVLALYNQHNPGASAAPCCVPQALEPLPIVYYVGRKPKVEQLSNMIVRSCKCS
Method: (§1) The affinity of all antibodies (including 39B6-A) for GARP-TGF-β1 was tested by BiacoreT200 using a CM5 chip coated with GARP-TGF-β1 complex at 150RU (Table 17) or coated with the antibodies at 200RU (Table 17)

[2] = molecular target: T1, human GARP-TGF-β1 complex (recombinant …); experiment: SPR Biacore T200, CM5 chip coated with the antibody at 200 RU, complex in solution
Method: as §1

[3] = molecular target: T1, human GARP-TGF-β1 complex (recombinant …); experiment: SPR Biacore 3000, chip ~4000 RU hGARP-TGF-β; slope vs -20°C reference (=100%); sample 0 d, 5°C arm
Method: (§2) From the intermediate concentration of all samples at 1 mg/ml described above, an extra 1/250 dilution was done for SPR analysis to yield a final concentration of 4 μg/ml. This 1/250 dilution took place for all conditions in two steps: a) 5 μl (1 mg/ml)+120 μl HBS-EP (SPR buffer) and b) an extra 10× dilution (15 μl+135 μl HBS-EP). For each antibody and each time point, a separate standard curve was prepared, starting from a −80° C. frozen sample. This was analyzed together with the stability samples to determine the slope of each curve after general fitting of the standards. These slopes were used to calculate the percent activity of the stability samples by setting the reference sample at 100%.
(§3) To determine the target binding activity in Biacore, a CM5 chip was coated with ˜4000 RU human GARP-TGF-β complex. Flow was set to 30 μl/min with a “kinject” injection mode and two regeneration injections (1 mM NaCl, 2.5 mM glycine pH 1.5) with a 5 min interval.
(§4) Open the curves in the BIAEVAL program and select value ‘2-1’ (1: blank, 2 hGARP-TGF-β1) [0263] Select one curve at the time for plot overlay [0264] Delete the regeneration part of the curve [0265] Select the baseline just before the injection and transform the Y-axis for ‘zero at median of selection’ [0266] Select ‘General Fit’, starting from 120 sec after injecting and ending at 155 sec [0267] Plot the standards in Excel and determine the slope of the curve for each antibody [0268] These values are converted to a percent activity by setting the reference (sample stored at −20° C.) at 100%

[4] = molecular target: T1, human GARP-TGF-β1 complex (recombinant …); experiment: SPR Biacore 3000, chip ~4000 RU hGARP-TGF-β; slope vs -20°C reference (=100%); sample 0 d, 37°C arm
Method: as §2, §3, §4

[5] = molecular target: T1, human GARP-TGF-β1 complex (recombinant …); experiment: SPR Biacore 3000, chip ~4000 RU hGARP-TGF-β; slope vs -20°C reference (=100%); sample stored 28 d at 5°C
Method: as §2, §3, §4

[6] = molecular target: T1, human GARP-TGF-β1 complex (recombinant …); experiment: SPR Biacore 3000, chip ~4000 RU hGARP-TGF-β; slope vs -20°C reference (=100%); sample stored 56 d at 5°C
Method: as §2, §3, §4

[7] = molecular target: T1, human GARP-TGF-β1 complex (recombinant …); experiment: SPR Biacore 3000, chip ~4000 RU hGARP-TGF-β; slope vs -20°C reference (=100%); sample stored 28 d at 37°C
Method: as §2, §3, §4

[8] = molecular target: T1, human GARP-TGF-β1 complex (recombinant …); experiment: SPR Biacore 3000, chip ~4000 RU hGARP-TGF-β; slope vs -20°C reference (=100%); sample stored 56 d at 37°C
Method: as §2, §3, §4

[9] = molecular target: T1, human GARP-TGF-β1 complex (recombinant …); experiment: SPR Biacore T200, CM5 chip coated with the antibody at 1000 RU, complex in solution
Method: (§5) Clone 39B6 was selected as the lead germlined clone based on its binding characteristics. This antibody was produced in two effector function deficient formats, hlgG1^N297Q and hlgG4^S228P, and stability tests were carried out. Prior to the stability testing, the affinity of the effector deficient 39B6 antibodies for GARP-TGF-β1 was tested by BiacoreT200 using a CM5 chip coated with GARP-TGF-β1 complex at 750RU (Table 14) or coated with the antibodies at 1000RU (Table 15).

[10] = molecular target: T1, human GARP-TGF-β1 complex (recombinant …); experiment: SPR Biacore T200, CM5 chip coated with GARP-TGF-β1 complex at 750 RU
Method: as §5

[11] = molecular target: T1, human GARP-TGF-β1 complex (recombinant …); experiment: SPR, mAb on human GARP-TGF-β1 complex
Source text: The five germlined clones reformatted to human IgG1 were produced by transient transfection in HEK 293E cells.

[12] = molecular target: T2, complex of recombinant GARP and recombinant LAP (human, UniProt Q14392 20-627; P01137 30-278); experiment: ELISA in two orientations: GARP coated and LAP captured; or ARGX-115 coated, GARP then LAP added, detected with anti-LAP-HRP
T2 construct: Formed on the ELISA plate; It contains no mature TGF-β; also called GARP-LAP complex
T2 sequence (Q14392 20-627 limits assumed, chain 1 of 2): as the sequence (Q14392 20-627 limits assumed, chain 1 of 3) above
T2 sequence (P01137 30-278 limits assumed, chain 2 of 2): as the sequence (P01137 30-278 limits assumed, chain 2 of 3) above
Method: For ELISA plates coated with GARP, a complex with either full-length latent TGF-β (including both the LAP and mature TGF-β regions) or a complex with recombinant LAP was allowed to form by the addition of the relevant recombinant protein. […] In contrast, an anti-LAP antibody was able to bind to the GARP-LAP complex.
An ELISA plate was coated with recombinant GARP (1 μg/mL O/N 4° C.), blocked with blocking agent (casein-PBS), and LAP (5 μg/mL) was captured on the coated recombinant GARP. LAP binding was detected with anti-LAP-HRP.

Binder | Fold-difference (KD vs 39B6-A) [1] | Kd [1] | Fold-difference (KD vs 39B6-A) [2] | Kd [2] | Activity on Biacore (%) [3] | Activity on Biacore (%) [4] | Activity on Biacore (%) [5] | Activity on Biacore (%) [6] | Activity on Biacore (%) [7] | Activity on Biacore (%) [8] | Kd [9] | Fold-difference (KD vs LHG10.6) [10] | Kd [10] | Fold-difference (KD vs LHG10.6) [9] | Kd [11] | fold difference (KD vs 17H5) [11] | binding result [12]
39B6-ANK IgG4 S228P (antibody, V domains shown, Variant of 39B6-A in IgG4 S228P format; Positions are Kabat-type) VH: QVQLVQPGAEVRKPGASVKVSCKASGYRFTSYYIDWVRQAPGQGLEWMGRIDPEDAGTKYAQKFQGRVTMTADTSTSTVYVELSSLRSEDTAVYYCARNKWETVVVGDLMYEYEYWGQGTLVTVSS VL: DIQMTQSPSSLSASVGDRVTITCQASQSISSYLAWYQQKPGQAPKILIYGASRLKTGVPSRFSGSGSGTSFTLTISSLEPEDAATYYCQQYASVPVTFGQGTKVEIKR | 0.9 fold | 0.88 nM | 1.5 fold | 2.02 nM | 130% | 130% | 101% | 101% | 77.8% | 62.4% |  |  |  |  |  |  | 
LHG10.6 IgG1-N297Q (antibody, V domains shown) VH: EVQLVQPGAELRNSGASVKVSCKASGYRFTSYYIDWVRQAPGQGLEWMGRIDPEDGGTKYAQKFQGRVTFTADTSTSTAYVELSSLRSEDTAVYYCARNEWETVVVGDLMYEYEYWGQGTQVTVSS VL: DIQMTQSPSSLSASLGDRVTITCQASQSISSYLAWYQQKPGQAPNILIYGASRLKTGVPSRFSGSGSGTSFTLTISGLEAEDAGTYYCQQYASVPVTFGQGTKVELK |  |  |  |  |  |  |  |  |  |  | 0.534 nM | 1 fold | 0.819 nM | 1 fold |  |  | 
LHG-10.6 monoclonal antibody (17H5 mAb), isotype not stated (antibody, V domains shown) VH: EVQLVQPGAELRNSGASVKVSCKASGYRFTSYYIDWVRQAPGQGLEWMGRIDPEDGGTKYAQKFQGRVTFTADTSTSTAYVELSSLRSEDTAVYYCARNEWETVVVGDLMYEYEYWGQGTQVTVSS VL: DIQMTQSPSSLSASLGDRVTITCQASQSISSYLAWYQQKPGQAPNILIYGASRLKTGVPSRFSGSGSGTSFTLTISGLEAEDAGTYYCQQYASVPVTFGQGTKVELK | 0.5 fold | 0.517 nM |  |  |  |  |  |  |  |  |  |  |  |  | 0.1 nM | 1 fold | 
39B6-ANR IgG4 S228P (antibody, V domains shown, Variant of 39B6-A in IgG4 S228P format; Positions are Kabat-type) VH: QVQLVQPGAEVRKPGASVKVSCKASGYRFTSYYIDWVRQAPGQGLEWMGRIDPEDAGTKYAQKFQGRVTMTADTSTSTVYVELSSLRSEDTAVYYCARNRWETVVVGDLMYEYEYWGQGTLVTVSS VL: DIQMTQSPSSLSASVGDRVTITCQASQSISSYLAWYQQKPGQAPKILIYGASRLKTGVPSRFSGSGSGTSFTLTISSLEPEDAATYYCQQYASVPVTFGQGTKVEIKR | 0.9 fold | 0.884 nM | 1.5 fold | 1.94 nM | 101% | 101% | 129% | 85.4% | 85.4% | 46.3% |  |  |  |  |  |  | 

Second part, the binder after the results:

Fold-difference (KD vs 39B6-A) [1] | Kd [1] | Fold-difference (KD vs 39B6-A) [2] | Kd [2] | Activity on Biacore (%) [3] | Activity on Biacore (%) [4] | Activity on Biacore (%) [5] | Activity on Biacore (%) [6] | Activity on Biacore (%) [7] | Activity on Biacore (%) [8] | Kd [9] | Fold-difference (KD vs LHG10.6) [10] | Kd [10] | Fold-difference (KD vs LHG10.6) [9] | Kd [11] | fold difference (KD vs 17H5) [11] | binding result [12] | Binder
 |  |  |  |  |  |  |  |  |  | 1.23 nM and 1.02 nM |  |  |  |  |  |  | 39B6 IgG1-N297Q (antibody, V domains shown, Effector-deficient format hIgG1 N297Q; The second row may be the IgG4 S228P form; Both rows are written here as printed) VH: QVQLVQPGAEVRKPGASVKVSCKASGYRFTSYYIDWVRQAPGQGLEWMGRIDPEDGGTKYAQKFQGRVTMTADTSTSTVYVELSSLRSEDTAVYYCARNEWETVVVGDLMYEYEYWGQGTLVTVSS VL: DIQMTQSPSSLSASVGDRVTITCQASQSISSYLAWYQQKPGQAPKILIYGASRLKTGVPSRFSGSGSGTSFTLTISSLEPEDAATYYCQQYASVPVTFGQGTKVEIK
0.8 fold | 0.763 nM | 1.2 fold | 1.62 nM | 93.5% | 93.5% | 96.7% | 104% | 96.1% | 104% |  |  |  |  |  |  | no binding | 39B6-AYE (ARGX-115), IgG4 S228P (antibody, V domains shown) VH: QVQLVQPGAEVRKPGASVKVSCKASGYRFTSYYIDWVRQAPGQGLEWMGRIDPEDAGTKYAQKFQGRVTMTADTSTSTVYVELSSLRSEDTAVYYCARYEWETVVVGDLMYEYEYWGQGTLVTVSS VL: DIQMTQSPSSLSASVGDRVTITCQASQSISSYLAWYQQKPGQAPKILIYGASRLKTGVPSRFSGSGSGTSFTLTISSLEPEDAATYYCQQYASVPVTFGQGTKVEIKR
0.9 fold | 0.894 nM | 1 fold | 1.29 nM | 99.5% | 99.5% | 99% | 96.9% | 68% | 31.3% |  |  |  |  |  |  |  | 39B6-AVE IgG4 S228P (antibody, V domains shown, Variant of 39B6-A in IgG4 S228P format; Positions are Kabat-type) VH: QVQLVQPGAEVRKPGASVKVSCKASGYRFTSYYIDWVRQAPGQGLEWMGRIDPEDAGTKYAQKFQGRVTMTADTSTSTVYVELSSLRSEDTAVYYCARVEWETVVVGDLMYEYEYWGQGTLVTVSS VL: DIQMTQSPSSLSASVGDRVTITCQASQSISSYLAWYQQKPGQAPKILIYGASRLKTGVPSRFSGSGSGTSFTLTISSLEPEDAATYYCQQYASVPVTFGQGTKVEIKR
